From article PMC9083827
Where “and” joins values, the source holds several entries; their conditions need not be identical. Equal entries are not always repeated.

Target: TraB_(31-110) (plasmid pIP501 (originally isolated from Streptococcus agalactiae, mainly found in Enterococci))
Test: cross-linking; 10 µg TraB_(31-110) in 50 µl with 0/0.001/0.01/0.05/0.1% glutaraldehyde in 50 mM Bicine, 150 mM NaCl, 1 mM DTT, 20 min at room temperature; Tween-20 micelles; SDS-PAGE

TraB_(31-110) (domain or fragment)
stoichiometry N: 2 and 4
